This note sets out measurements from publication PMC4786772, “Manipulation of prenylation reactions by structure-based engineering of bacterial indolactam prenyltransferases” (Nature Communications, 2016).

Holding throughout (experiment): purified protein
Details in all cases: 150 μM (−)-indolactam V, 42 °C, 5 min, Tris-HCl pH 7.0, 150 mM NaCl

Data set [1] concerns CC(C)=CCC/C(C)=C/COP(=O)(O)OP(=O)(O)O.
Data set [2] deals with CC(C)=CCOP(=O)(O)OP(=O)(O)O.
In data set [3] the test system is CC(C)=CCC/C(C)=C/CC/C(C)=C/CO[P@@](=O)(O)OP(=O)(O)O.

One may read the Km as the substrate concentration at which the rate is half of its maximum. As a reminder, the kcat is the number of substrate molecules converted per active site and unit of time at saturation. A word on the kcat/Km: it is the second-order rate constant that governs catalysis at low substrate concentration. Turning to “TleC (Streptomyces blastmyceticus; W97Y)”, in data set [1], the Km worked out at 7.7 ± 1.0 µM, the kcat is 0.168 ± 0.00667 s⁻¹ and the specificity constant (kcat/Km) stood at 21800 M⁻¹ s⁻¹. In data set [2], the Michaelis constant (Km) was found to be 11.3 ± 1.6 µM, the kcat was determined as 0.402 ± 0.0133 s⁻¹ and the kcat/Km came out at 35500 M⁻¹ s⁻¹.

For “TleC (Streptomyces blastmyceticus; A173M/F170W/W97Y)”, in data set [2], the Km amounted to 46.6 ± 8.2 µM, the kcat came to 0.0433 ± 0.00333 s⁻¹ and the kcat/Km came to 900 M⁻¹ s⁻¹.

As for MpnD (Marinactinospora thermotolerans), in data set [3], the Km is 95.5 ± 17.1 µM, the kcat came out at 0.0867 ± 0.00833 s⁻¹ and the kcat/Km was determined as 900 M⁻¹ s⁻¹. Further, in data set [1], the Km was 26.0 ± 4.9 µM, the kcat was 0.0433 ± 0.00333 s⁻¹ and the kcat/Km is 1700 M⁻¹ s⁻¹. In data set [2], the Km turned out to be 4.8 ± 1.0 µM, the kcat came to 0.882 ± 0.0433 s⁻¹ and the kcat/Km worked out at 183000 M⁻¹ s⁻¹.

As to TleC (Streptomyces blastmyceticus), in data set [1], the Km amounted to 9.5 ± 3.3 µM, the kcat worked out at 0.25 ± 0.025 s⁻¹ and the kcat/Km came to 26400 M⁻¹ s⁻¹. Moreover, in data set [2], the Km worked out at 21.7 ± 4.3 µM, the kcat is 0.025 ± 0.00167 s⁻¹ and the specificity constant (kcat/Km) came to 1100 M⁻¹ s⁻¹.

Consider “MpnD (Marinactinospora thermotolerans; Y80W)”, for which, in data set [1], the Km is 9.7 ± 1.1 µM, the kcat was found to be 0.09 ± 0.00167 s⁻¹ and the kcat/Km worked out at 9300 M⁻¹ s⁻¹. In data set [2], the Km was found to be 15.3 ± 2.5 µM, the turnover number (kcat) is 0.118 ± 0.005 s⁻¹ and the specificity constant (kcat/Km) was 7700 M⁻¹ s⁻¹.

“TleC (Streptomyces blastmyceticus; A173M/W97Y)”: in data set [2], the Km stood at 41.2 ± 5.6 µM, the kcat amounted to 0.0333 ± 0.00167 s⁻¹ and the kcat/Km amounted to 800 M⁻¹ s⁻¹.

For the substance “TleC (Streptomyces blastmyceticus; A173M)”, in data set [2], the Km is 24.6 ± 3.0 µM, the kcat was found to be 0.065 ± 0.00167 s⁻¹ and the kcat/Km was found to be 2600 M⁻¹ s⁻¹.

Regarding “MpnD (Marinactinospora thermotolerans; M159A)”, the Km in data set [3] was 48.7 ± 14.6 µM; in data set [1], 9.1 ± 1.2 µM; in data set [2] it was 24.2 ± 4.2 µM. The kcat in data set [3] was determined as 0.167 ± 0.015 s⁻¹; in data set [1], 0.0717 ± 0.00333 s⁻¹; in data set [2], 0.505 ± 0.0333 s⁻¹. Besides, the kcat/Km in data set [3] came out at 3400 M⁻¹ s⁻¹; in data set [1], 7900 M⁻¹ s⁻¹; in data set [2] it was 20900 M⁻¹ s⁻¹.
